This note sets out measurements from PMC5658772 (Emerging Microbes & Infections, 2017).

In this assay the target is T1, ZIKV envelope protein domain III-hFc fusion protein (ZIKV-DIII-hFc) (Zika virus strain MR766, UniProt Q32ZE1).
T1 construct: source: 293 FreeStyle, transient, purified from conditioned culture medium
In words: BLI; Octet-Red96, 37 °C; […] (30 μg/mL, sodium acetate pH 5.0) […]; association 300 s, dissociation 1500 s; 1:1 Langmuir model; […]. As to conditions: both partners purified.

B1: m301 IgG1 (antibody, V domains shown)
VH: EVQLVQSGGGLVKPGGSLRLSCAASGFTFSSYGMHWVRQAPGKGLEWVAVISYDGSNKYYADSVKGRFTISRDNSKNTLYLQMNSLRAEDTAVYYCAKEVGRSYFDYWGQGTLVTVSS
VL: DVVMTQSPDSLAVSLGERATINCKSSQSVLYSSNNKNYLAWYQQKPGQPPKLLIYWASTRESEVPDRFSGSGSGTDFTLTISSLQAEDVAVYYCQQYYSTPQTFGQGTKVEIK
notes: also called m301 mAb; IgG m301; source: Expi293, transient, purified (protein G)
On to B1, for which the Kd – broadly, the free concentration of one partner at which half of the binding sites on the other are occupied at equilibrium, for simple one-to-one binding – amounted to 0.2 nM and the koff (in general, the rate constant with which the complex falls apart) stood at 4e-05 s⁻¹.

B2: m302 IgG1 (antibody, V domains shown)
VH: EVQLVQSGGGLVKPGRSLRLSCAASGFTFSSYAMHWVRQAPGKGLEWVAVISYDGSNKYYADSVKGRFTISRDNSKNTLYLQMNSLRAEDTAVYYCAREIGDYYYYGMDVWGQGTLVTVSS
VL: EIVMTQSPATLSLSPGERATLSCRASQSVSSYLAWYQQKPGQAPRLLIYDASNRATGIPARFSGSGSGTDFTLTISSLQPEDFATYYCQQSYSTPLTFGGGTKVEIK
notes: also called m302 mAb; IgG m302; source: Expi293, transient, purified (protein G)
Turning to B2, the Kd came out at 47 nM and the koff amounted to 0.002 s⁻¹.
